Measured values from US20220289837A1 (VIB VZW, published 2022).
One block for each binder: values may come before it.

What was measured:
[1] = target: 2PT-NBD1 (human CFTR nucleotide-binding domain 1, residues 387-646, with S492P, A534P, I539T) (human, UniProt P13569 388-646, biotinylated for the ELISA (sites not given)); test: cell-based or functional assay
[2] = target: T1, Purified human wt-CFTR (His10-SUMO*-CFTRFLAG-EGFP), PKA phosphorylated (human, UniProt P13569 1-1480, PKA phosphorylated (sites not given)); test: cell-based or functional assay
T1 sequence (P13569 whole entry): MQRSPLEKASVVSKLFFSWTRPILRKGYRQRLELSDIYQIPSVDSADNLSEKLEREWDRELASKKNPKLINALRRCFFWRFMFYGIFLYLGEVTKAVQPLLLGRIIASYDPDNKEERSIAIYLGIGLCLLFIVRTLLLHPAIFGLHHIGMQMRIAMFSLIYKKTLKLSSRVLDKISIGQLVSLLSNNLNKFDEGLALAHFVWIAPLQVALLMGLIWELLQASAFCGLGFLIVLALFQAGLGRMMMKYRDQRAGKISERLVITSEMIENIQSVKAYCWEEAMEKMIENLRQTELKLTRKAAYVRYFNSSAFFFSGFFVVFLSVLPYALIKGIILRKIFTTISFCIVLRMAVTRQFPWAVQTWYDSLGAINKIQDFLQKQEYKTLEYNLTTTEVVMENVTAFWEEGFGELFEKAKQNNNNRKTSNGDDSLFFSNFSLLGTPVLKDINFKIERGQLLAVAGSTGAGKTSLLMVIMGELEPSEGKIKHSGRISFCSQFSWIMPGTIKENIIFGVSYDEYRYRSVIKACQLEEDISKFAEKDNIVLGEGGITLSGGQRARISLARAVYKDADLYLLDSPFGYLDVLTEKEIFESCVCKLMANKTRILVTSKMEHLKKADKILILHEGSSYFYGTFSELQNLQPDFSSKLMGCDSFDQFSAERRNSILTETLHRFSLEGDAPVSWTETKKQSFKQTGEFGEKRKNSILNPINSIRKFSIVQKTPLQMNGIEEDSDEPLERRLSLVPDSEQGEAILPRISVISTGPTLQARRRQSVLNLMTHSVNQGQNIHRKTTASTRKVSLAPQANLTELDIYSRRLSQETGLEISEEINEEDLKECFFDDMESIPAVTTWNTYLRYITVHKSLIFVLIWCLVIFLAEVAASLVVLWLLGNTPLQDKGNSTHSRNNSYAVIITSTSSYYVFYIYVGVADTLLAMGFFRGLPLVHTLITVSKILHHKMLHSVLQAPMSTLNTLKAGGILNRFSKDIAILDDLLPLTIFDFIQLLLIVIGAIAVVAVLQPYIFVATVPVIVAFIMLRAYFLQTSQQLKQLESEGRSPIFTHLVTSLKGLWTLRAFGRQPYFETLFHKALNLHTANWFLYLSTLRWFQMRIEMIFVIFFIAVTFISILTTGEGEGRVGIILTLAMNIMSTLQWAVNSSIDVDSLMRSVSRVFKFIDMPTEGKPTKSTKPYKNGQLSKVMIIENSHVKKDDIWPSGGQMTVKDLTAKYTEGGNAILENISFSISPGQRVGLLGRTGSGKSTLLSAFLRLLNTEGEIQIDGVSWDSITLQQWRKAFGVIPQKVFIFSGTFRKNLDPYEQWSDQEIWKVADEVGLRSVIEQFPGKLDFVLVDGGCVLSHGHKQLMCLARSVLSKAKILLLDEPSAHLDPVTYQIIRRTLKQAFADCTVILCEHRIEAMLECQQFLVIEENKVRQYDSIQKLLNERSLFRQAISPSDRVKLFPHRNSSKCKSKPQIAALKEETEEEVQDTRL

[3] = target: T2, 2PT-F508del-CFTR expressed in BHK-21 cells (human, UniProt P13569 1-1480, I539T; S492P; A534P; F508del); test: flow cytometry on permeabilised BHK-21 cells expressing 2PT-F508del-CFTR, anti-tag antibody and Alexa Fluor 488 secondary
T2 construct: Full-length F508del CFTR stabilized by the three point mutations; permeabilized cells in flow cytometry
T2 sequence (P13569 other isoform, or with tags, fused parts or gaps I539T/S492P/A534P/F508del): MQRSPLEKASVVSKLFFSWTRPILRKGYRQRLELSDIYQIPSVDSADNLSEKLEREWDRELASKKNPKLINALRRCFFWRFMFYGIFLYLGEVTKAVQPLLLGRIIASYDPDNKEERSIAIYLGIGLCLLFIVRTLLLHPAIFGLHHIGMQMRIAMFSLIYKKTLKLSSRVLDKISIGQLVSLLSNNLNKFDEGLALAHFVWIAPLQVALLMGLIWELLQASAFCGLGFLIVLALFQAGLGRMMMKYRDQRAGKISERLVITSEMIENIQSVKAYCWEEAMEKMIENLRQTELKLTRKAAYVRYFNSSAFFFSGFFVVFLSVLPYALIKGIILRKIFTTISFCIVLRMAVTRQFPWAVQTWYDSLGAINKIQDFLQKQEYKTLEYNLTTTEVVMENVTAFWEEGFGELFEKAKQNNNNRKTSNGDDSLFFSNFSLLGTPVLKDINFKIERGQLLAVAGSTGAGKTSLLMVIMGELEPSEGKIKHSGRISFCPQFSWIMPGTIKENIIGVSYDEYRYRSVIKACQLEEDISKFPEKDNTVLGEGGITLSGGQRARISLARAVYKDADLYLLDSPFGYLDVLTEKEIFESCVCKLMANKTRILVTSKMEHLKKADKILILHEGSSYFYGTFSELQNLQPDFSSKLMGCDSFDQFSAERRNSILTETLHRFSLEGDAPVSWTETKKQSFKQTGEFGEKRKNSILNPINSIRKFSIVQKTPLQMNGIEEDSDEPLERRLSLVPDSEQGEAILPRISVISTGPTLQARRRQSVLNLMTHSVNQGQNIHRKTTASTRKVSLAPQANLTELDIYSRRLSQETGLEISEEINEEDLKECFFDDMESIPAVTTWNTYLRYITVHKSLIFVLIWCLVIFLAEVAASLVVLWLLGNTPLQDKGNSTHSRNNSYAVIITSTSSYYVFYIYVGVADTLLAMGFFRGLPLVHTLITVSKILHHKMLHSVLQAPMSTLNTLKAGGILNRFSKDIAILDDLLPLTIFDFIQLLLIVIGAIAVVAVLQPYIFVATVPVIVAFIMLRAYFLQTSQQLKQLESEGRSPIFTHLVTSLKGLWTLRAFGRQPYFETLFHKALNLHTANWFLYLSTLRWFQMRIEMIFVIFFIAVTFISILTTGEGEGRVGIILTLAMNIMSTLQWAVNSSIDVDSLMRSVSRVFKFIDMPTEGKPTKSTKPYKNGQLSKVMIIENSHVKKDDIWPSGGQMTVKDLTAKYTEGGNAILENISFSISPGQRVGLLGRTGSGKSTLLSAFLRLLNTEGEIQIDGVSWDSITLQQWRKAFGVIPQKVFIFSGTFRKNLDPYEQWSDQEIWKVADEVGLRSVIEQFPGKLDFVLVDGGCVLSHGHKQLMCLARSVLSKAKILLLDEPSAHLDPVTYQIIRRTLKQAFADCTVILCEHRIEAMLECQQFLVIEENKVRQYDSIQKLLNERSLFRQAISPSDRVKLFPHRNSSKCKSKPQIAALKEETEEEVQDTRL
Source text: (§1) Graph depicts one representative of at least three independent experiments. (FIG. 4F) Average median fluorescence (fold over negative control) for each of the three representative nanobodies as illustrated in (FIG. 4D) and (FIG. 4E). Quantification of at least 3 independent experiments (±SEM). (g) Immunoblot of CFTR from solubilized BHK-21 cells pulled-down with His-tagged nanobodies, including a non-CFTR nanobody as a control. Eluted nanobodies-CFTR complexes were separated by SDS-PAGE and presence of CFTR was detected with mAb 596 antibody after immunoblotting. Arrows indicate the mature (band C) and immature (band B) forms of CFTR. Representative of at least 3 independent experiments. (FIG. 4H) Flow cytometry analysis of nanobodies T2a, T8 and G3a on BHK-21 cells expressing 2PT-F508del showing increased labelling for T2a and G3a, but not T8. (FIG. 4I) Quantification of data illustrated in […]. Average of 3 independent experiments (±SEM).
Parental BHK-21 cells (ATCC; CCL-10) and cells stably overexpressing human wt-CFTR^{[43,44,47]} or 2PT-F508del-CFTR, as described above, were permeabilized with 0.01% n-Dodecyl-β-D-Maltopyranoside β-DDM—Inalco) at least for 2 h on ice. In the meantime, cells were incubated with 50 μg/ml nanobodies and DRAQ7 (0.3 μM—Biostatus) to monitor the permeabilization state. Nanobody binding was detected by using His-tag specific antibody (Invitrogen, catalogue number MA1-135, 1 μg/ml) or Myc-tag specific antibody (Invitrogen, catalogue number 13-2500, 2 μg/ml) and then anti-mouse-Alexa Fluor 488 (Invitrogen, catalogue number A11001, 1.3 μg/ml) at least for 30 min on ice. Cells were washed one time between each step by centrifugation (200×g for 5 min at 4° C.). All incubations (100 μl) and washes (1.5 ml) were performed in PBS with 6% fetal bovine serum (FBS) and 0.01%13-DDM on ice. Cells fluorescence was measured with Gallios Flow Cytometer (Beckman Coulter). Data were analyzed with Kaluza software.

[4] = target: T1, Purified human wt-CFTR …; test: ELISA, Twin-Strep nanobody immobilised, concentration of purified wt-CFTR varied
Source text: as §1, with “Quantification” for “Graph depicts one representative of at least three independent experiments. (FIG. 4F) Average median fluorescence (fold over negative control) for each of the three representative nanobodies as illustrated in (FIG. 4D) and (FIG. 4E). Quantification”
Strep-Tactin XT coated microplate (iba Life Science) was coated overnight at 4° C. with Twin-Strep-tagged nanobodies (5 μg/ml). […] CFTR binding was detected with monoclonal antibodies L12B4, MM13, 154, 660, 570, 596 specific to CFTR obtained from the CFTR Antibody Distribution Program (http://cftrantibodies.web.unc.edu/available-antibodies)46 and then anti-mouse-HRP antibody (Millipore, catalogue number: AP308P, 0.5 μg/ml) for 1 h 30 min at 4° C. […] Nanobody binding was detected with Myc-tag specific antibody (Sigma, catalogue number: C3956, 0.5 μg/ml) and then anti-rabbit-HRP antibody (Cell Signaling, catalogue number: 7074S, 1:1000 dilution) for 1 h 30 min at 4° C. […]

Sequence of 2PT-NBD1 (human CFTR nucleotide-binding domain 1, residues 387-646, with S492P, A534P, I539T) (P13569 388-646 V470M/S492P/A534P/I539T limits assumed): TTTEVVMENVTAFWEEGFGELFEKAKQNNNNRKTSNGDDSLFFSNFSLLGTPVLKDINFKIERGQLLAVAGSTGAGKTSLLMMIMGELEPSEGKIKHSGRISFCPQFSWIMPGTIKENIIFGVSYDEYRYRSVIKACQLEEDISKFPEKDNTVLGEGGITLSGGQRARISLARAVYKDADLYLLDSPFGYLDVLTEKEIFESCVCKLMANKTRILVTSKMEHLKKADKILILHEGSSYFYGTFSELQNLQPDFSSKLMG

ATPase activity (% of PKA-phosphorylated CFTR) [2]: 60%
binding result [3]: no binding
EC50 (read off the curve) [4]: ~2 nM
B1: Nanobody T8 (VHH, not shown: small tags and cut ends)
VHH: QVQLQESGGGLVQPGGSLRLSCAASGSTSSINAMGWYRQAPGKQREPVAISSSGGDTRYAEPVKGRFTISRDNAQNKVYLQMNSLKPEDTAVYYCWLNWGRTSVNSWGQGTQVTVSS
notes: Llama nanobody; also called Nb T8; T8 Nb
increase of Tm (thermal shift assay, DSF) [1]: 9.3 °C

ATPase activity (% of PKA-phosphorylated CFTR) [2]: 50%
binding result [3]: binds
EC50 (read off the curve) [4]: ~3 nM
B2: Nanobody T2a (VHH, not shown: small tags and cut ends)
VHH: QVQLQESGGGLVQAGGSLRLSCAASGSIFRIDAMGWYRQAPGKQRELVAHSTSGGSTDYADSVKGRFTISRDNAKNTVYLQMNSLKPEDTAVYYCNADVRTRWYASNNYWGQGTQVTVSS
notes: Llama nanobody; also called Nb T2a; T2a Nb
increase of Tm (thermal shift assay, DSF) [1]: 11.2 °C
